Measured values published in the supplement of paper PMC10567573.

B1: RHOBTB3 (parent)
chain: GGADIIVIKYNVNDKFSFHEVKDN

Variants of: B1
Assay: protein stability index of a GFP-peptide fusion (GPS, HEK-293T) (PSI 1-6); higher = more stable
Settings: c terminus: a fixed tail appended
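Note: lentivirally expressed fusions sorted by FACS into six bins by GFP to DsRed ratio, PSI derived from sequencing read proportions per bin multiplied by bin number.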

Protein stability index, by site and new letter:
K22: W 2.75 | R 2.61 | L 2.43 | S 2.52 | A 2.89 | H 3.97 | G 2.76 | P 3.07 | Q 2.01 | V 3.25 | F 4.16 | M 2.35 | E 3.13 | N 2.1 | D 2.36
V21: D 1.3 | A 3.15 | R 2.42 | M 3.97 | P 2.01 | K 2.59 | N 1.66 | L 2.72 | C 1.96 | W 2.15 | F 3.01 | H 2.15 | Q 2.29
D14: T 2.67 | E 2.8 | I 4.53 | A 3.34 | N 3.12 | S 3.4 | H 2.94 | V 4.54 | M 1.62 | Y 3.38 | R 2.36 | F 3.63 | W 2.63
V7: K 2.33 | Q 2.31 | I 2.46 | M 2.06 | R 1.67 | A 2.17 | L 2.3 | C 1.79 | N 2.85 | Y 2.29 | E 3.28 | D 4.15 | T 1.6 | G 2.5 | S 2.17
Y10: G 2.19 | I 4.15 | V 3.23 | W 3.26 | P 2.77 | N 2.03 | D 3.68 | E 2.29 | L 3.82 | K 1.82 | R 2.53 | F 2.26 | A 1.27 | T 1.92
D4: P 3.07 | K 4.09 | R 4.21 | G 3.68 | E 4.16 | C 2.96 | S 2.66 | M 3.48 | T 3.79 | I 3.04 | L 1.8 | W 2.41 | N 2.47 | A 2.91
N11: V 3.99 | M 3.72 | E 1.76 | H 3.1 | T 2.43 | K 4.82 | R 2.45 | I 2.24 | G 3.11 | F 1.97 | A 2.36 | D 2.29 | S 2.23 | Q 3.46 | W 3.58
H19: Q 3.57 | Y 3.29 | T 2.52 | D 1.95 | P 2.55 | E 2.5 | I 1.54 | K 2.44 | F 3.33 | N 3.79 | G 2.55 | C 3.17 | V 2.72 | A 2.27
F16: C 2.2 | I 2.88 | T 2.33 | M 2.04 | G 2.74 | A 2.24 | L 1.63 | P 2.55 | R 1.6 | Y 2.62 | N 1.84 | K 1.73 | D 2.07
G1: Y 2.04 | E 2.13 | R 3.04 | W 1.54 | Q 2.37 | K 2.99 | M 1.97 | A 2.07 | P 2.18 | L 2.44 | T 2.99 | N 2.96 | S 3.49
K15: H 2.87 | V 3.95 | F 2.8 | N 3.83 | L 3.48 | G 4.47 | C 4.37 | E 2.03 | Y 2.75 | Q 2.13 | D 4.13 | P 2.59 | S 2.73 | W 3.18
S17: E 2.94 | I 2.65 | V 1.73 | N 3.14 | D 2.64 | G 2.54 | Q 2.36 | K 3.18 | H 2.69 | F 3.05 | Y 1.63 | R 2.35 | C 2.27 | P 2.54
